Laboratory results from patent publication US12016906B2, “Pharmaceutical composition for anaemia” (Frimline Private Limited, priority 2018, dated 2024).

Legend:
Format in all cases: in vivo, male Wistar rats (Rat Rattus)
Conditions in all cases: IDD rats
[1] = test system: Iron deficient Diet (IDD) induced anaemia in rats; assay: Hematocrit % level in IDD induced anaemia in rats
Description: (§1) Screening of pharmaceutical composition/formulation comprising combination of Lactoferrin+Guanosine Nucleotide or a pharmaceutically acceptable salt thereof with or without optional ingredients against Iron deficient Diet (IDD) induced anaemia in rats. For this study different parameters like Hb Level, Hematocrit level, Serum Iron level, Ferroportin level, Serum Ferritin level, Hepcidin level and IL-6 Level were evaluated. The following trials were carried out by taking reference from Wang Xl, Liu S, Xu H, Yan W, Effects of recombinant human lactoferrin on improving the iron status of IDA. Wei Sheng Yan Jiu. 2012 January; 41(1):13-7, 22 and Nora M. El-Sheikh, the Protective Effect of Soybean and Thyme on Iron Deficiency Anemia in Rats, the Egyptian Journal of Hospital Medicine (2008) Vol., 33: 510-520 as available.
(§2) 72 male Wistar rats (Rat Rattus) (6 per group) were maintained in animal house in a light/dark atmosphere based on a 12 hour cycle having temperature and relative humidity in the range of 22±3° C. and 30-70% respectively. To maintain the appropriate conditions, temperature and relative humidity were recorded three times daily. All animals were acclimatized for a minimum period of five days. Animals were maintained in the test setup for minimum 30 minutes once during the acclimatization period to reduce the stress. Animals were weighed on the day of receipt and observed daily for abnormalities if any. […]
(§3) After 3 weeks of respective dietary intervention, the level of Hemoglobin was determined in each animal. […]
(§4) After 5 weeks (35 days) of respective dietary intervention, once again hemoglobin level, HCT % level and serum iron level were analyzed and then, respective drug treatment was started with continuous administration of Iron deficient diets in all groups as mentioned above in Table 1.
(§5) After 9 weeks of respective drug treatment (total after 14 weeks from start of the study—98 days), various biochemical parameters were measured to evaluate the effect of respective individual and combination therapy on iron deficient anaemia model (G3 to G12). […]

[2] = test system: Iron deficient Diet (IDD) induced anaemia in rats; assay: Ferroportin level in IDD induced anaemia in rats
Description: as §1, with “2012 January; 41(1):13-7, 22 and Nora M. El-Sheikh, the Protective Effect of Soybean and Thyme on Iron Deficiency Anemia in Rats, the Egyptian Journal of Hospital Medicine (2008) Vol., 33: 510-520 as available.” left out
(§6) 72 male Wistar rats (Rat Rattus) (6 per group) were maintained in animal house in a light/dark atmosphere based on a 12 hour cycle having temperature and relative humidity in the range of 22±3° C. and 30-70% respectively. To maintain the appropriate conditions, temperature and relative humidity were recorded three times daily. […]
(§7) After 5 weeks (35 days) of respective dietary intervention, once again hemoglobin level, HCT % level and serum iron level were analyzed and then, respective drug treatment was started with continuous administration of Iron deficient diets in all groups as mentioned above in Table 1. […]

[3] = test system: Iron deficient Diet (IDD) induced anaemia in rats; assay: Serum ferritin level in IDD induced anaemia in rats
Description: as §1, with “2012 January; 41(1):13-7, 22 and Nora M. El-Sheikh, the Protective Effect of Soybean and Thyme on Iron Deficiency Anemia in Rats, the Egyptian Journal of Hospital Medicine (2008) Vol., 33: 510-520 as available.” left out
as §6, §7

[4] = test system: Iron deficient Diet (IDD) induced anaemia in rats; assay: Hepcidin level in IDD induced anaemia in rats
Description: as §1, with “2012 January; 41(1):13-7, 22 and Nora M. El-Sheikh, the Protective Effect of Soybean and Thyme on Iron Deficiency Anemia in Rats, the Egyptian Journal of Hospital Medicine (2008) Vol., 33: 510-520 as available.” left out
as §6, §7

[5] = test system: Iron deficient Diet (IDD) induced anaemia in rats; assay: Serum iron level in IDD induced anaemia in rats
Description: as §1, §2, §3, §4, §5

[6] = test system: Iron deficient Diet (IDD) induced anaemia in rats; assay: Hb level in IDD induced anaemia in rats
Description: as §1, with “Jiu.” for “Jiu. 2012 January; 41(1):13-7, 22 and Nora M. El-Sheikh, the Protective Effect of Soybean and Thyme on Iron Deficiency Anemia in Rats, the Egyptian Journal of Hospital Medicine (2008) Vol., 33: 510-520 as available.”
as §2, with “any. Detailed records of acclimatization were also maintained. Rats were housed 6 per cage in clean, sterilized Polypropylene cages.” for “any.”
After 3 weeks of respective dietary intervention, the level of Hemoglobin was determined in each animal.
as §4, §5

[7] = test system: Iron deficient Diet (IDD) induced anaemia in rats; assay: IL-6 level in IDD induced anaemia in rats
Description: as §1, with “Jiu.” for “Jiu. 2012 January; 41(1):13-7, 22 and Nora M. El-Sheikh, the Protective Effect of Soybean and Thyme on Iron Deficiency Anemia in Rats, the Egyptian Journal of Hospital Medicine (2008) Vol., 33: 510-520 as available.”
as §6, with “daily. All animals were acclimatized for a minimum period of five days.” for “daily.”
as §7

[8] = Day 98, after 9 weeks of treatment p.o.

B1: Lactoferrin: multifunctional globular glycoprotein of the transferrin family, about 80 kDa; individual component group (protein, UniProt P02788 20-710, looked up)
Lactotransferrin: GRRRSVQWCAVSQPEATKCFQWQRNMRKVRGPPVSCIKRDSPIQCIQAIAENRADAVTLDGGFIYEAGLAPYKLRPVAAEVYGTERQPRTHYYAVAVVKKGGSFQLNELQGLKSCHTGLRRTAGWNVPIGTLRPFLNWTGPPEPIEAAVARFFSASCVPGADKGQFPNLCRLCAGTGENKCAFSSQEPYFSYSGAFKCLRDGAGDVAFIRESTVFEDLSDEAERDEYELLCPDNTRKPVDKFKDCHLARVPSHAVVARSVNGKEDAIWNLLRQAQEKFGKDKSPKFQLFGSPSGQKDLLFKDSAIGFSRVPPRIDSGLYLGSGYFTAIQNLRKSEEEVAARRARVVWCAVGEQELRKCNQWSGLSEGSVTCSSASTTEDCIALVLKGEADAMSLDGGYVYTAGKCGLVPVLAENYKSQQSSDPDPNCVDRPVEGYLAVAVVRRSDTSLTWNSVKGKKSCHTAVDRTAGWNIPMGLLFNQTGSCKFDEYFSQSCAPGSDPRSNLCALCIGDEQGENKCVPNSNERYYGYTGAFRCLAENAGDVAFVKDVTVLQNTDGNNNEAWAKDLKLADFALLCLDGKRKPVTEARSCHLAMAPNHAVVSRMDKVERLKQVLLHQQAKFGRNGSDCPDKFCLFQSETKNLLFNDNTECLARLHGKTTYEKYLGPQYVAGITNLKKCSTSPLLEACEFLRK
[1]; Day 35, before treatment
  Hematocrit Pre-treatment: 35.33%
[1]; [8]
  Hematocrit Post-treatment: 40.17%
[1]; Day 98
  Hematocrit % Change compared to Disease control: 56.3%
[2]; [8]
  Ferroportin Post-treatment: 3.6 ng/mL
[2]; Day 98
  Ferroportin % Change compared to Disease control: 31.4%
[3]; [8]
  Ferritin Post-treatment: 680 ng/mL
[3]; Day 98
  Ferritin % Change compared to Disease control: −8.1%
[4]; [8]
  Hepcidin Post-treatment: 3830 ng/mL
[4]; Day 98
  Hepcidin % Change compared to Disease control: −13.0%
[5]; Day 35, before treatment
  Serum IRON Pre-treatment: 3.08 ppm
[5]; [8]
  Serum IRON Post-treatment: 5.31 ppm
[5]; Day 98
  Serum IRON % Change compared to Disease control: 99.1%
[6]; Day 35, before treatment
  Hemoglobin Pre-treatment: 8.8 g/dL
[6]; [8]
  Hemoglobin Post-treatment: 10.3 g/dL
[6]; Day 98
  Hemoglobin % Change compared to Disease control: 58.8%
[7]; [8]
  IL-6 Post-treatment: 57.2 pg/mL
[7]; Day 98
  IL-6 % Change compared to Disease control: −8.2%
